From publication PMC3728621, “Structural analysis of autoinhibition in the Ras-specific exchange factor RasGRP1” (eLife, 2013) come the findings set out here.

Series [1] deals with the molecule itself. The series can be described thus: multiangle light scattering; RasGRP1^CC in solution, 30 μM to 1.5 mM monomer; data not shown.
Series [2] deals with the molecule itself. The experiment in a line: crystal structure; RasGRP1^CEC at 3.0 Å; hanging drop, 0.15 M sodium citrate tribasic, 22% PEG 3350, 1 mM MnCl2, 20°C; dimer generated by a crystallographic twofold axis.

B1: RasGRP1^CC (human RasGRP1 C-terminal coiled coil, residues 739-793) (domain or fragment, UniProt O95267 739-793, looked up)
chain: ELRHLRLPTYQELEQEINTLKADNDALKIQLKYAQKKIESLQLEKSNHVLAQMEQ
notes: human RasGRP1 (full length 797 residues), residues 739-793, containing the predicted coiled coil (747-789); Parallel dimeric coiled coil; The model holds residues 745-793 (molecule A) and 745-786 (molecule B); also called C-terminal oligomerization domain; source: E. coli BL21(DE3), purified (HisTrap, tag removal with ULP1, second HisTrap, Superdex gel filtration); not shown: His6, N-terminal, …
The stoichiometry N is a count of units in the complex or per binding partner. As to B1, the “stoichiometry N” value in series [1] amounted to 2.

B2: RasGRP1^CEC (human Ras guanine nucleotide releasing protein 1, residues 50-607: REM, Cdc25, EF and C1 domains) (domain or fragment, UniProt O95267 50-607, looked up)
chain: MVSLGHLAKGASLDDLIDSCIQSFDADGNLCRSNQLLQVMLTMHRIVISSAELLQKVITLYKDALAKNSPGLCLKICYFVRYWITEFWVMFKMDASLTDTMEEFQELVKAKGEELHCRLIDTTQINARDWSRKLTQRIKSNTSKKRKVSLLFDHLEPEELSEHLTYLEFKSFRRISFSDYQNYLVNSCVKENPTMERSIALCNGISQWVQLMVLSRPTPQLRAEVFIKFIQVAQKLHQLQNFNTLMAVIGGLCHSSISRLKETSSHVPHEINKVLGEMTELLSSSRNYDNYRRAYGECTDFKIPILGVHLKDLISLYEAMPDYLEDGKVNVHKLLALYNHISELVQLQEVAPPLEANKDLVHLLTLSLDLYYTEDEIYELSYAREPRNHRAPPLTPSKPPVVVDWASGVSPKPDPKTISKHVQRMVDSVFKNYDHDQDGYISQEEFEKIAASFPFSFCVMDKDREGLISRDEITAYFMRASSIYSKLGLGFPHNFQETTYLKPTFCDNCAGFLWGVIKQGYRCKDCGMNCHKQCKDLVVFECKKRAKNPVAPTENNTS
notes: human RasGRP1 (full length 797 residues), residues 50-607, spanning the REM, Cdc25, EF and C1 domains; Crystallographic dimer; In gel filtration it forms dimers and higher order oligomers, depending on concentration; The structural model spans residues 53-593; 186-192 and 437-448 are not modelled; source: E. coli BL21(DE3), purified (HisTrap, tag removal with ULP1, second HisTrap, Superdex gel …)
B2: the binding result in series [2] is listed as “binds”.
